Reference: US20180346602A1

Key:
[1] = target: anti-VEGF/ANG2 antibody (IgG1 subclass with mutations P329G/L234A/L235A/I253A/H310A/H435A) (human) [IgG part: P01857]; experiment: sandwich ELISA in serum; M1.3.17-Bi capture on SA plate; tracer anti-human kappa M1.7.10-Dig; analyte 1.25 ng/mL
[2] = target: anti-VEGF/ANG2 antibody (IgG1 subclass with mutations P329G/L234A/L235A/I253A/H310A/H435A) (human) [IgG part: P01857]; experiment: sandwich ELISA in serum; M1.3.17-Bi capture on SA plate; tracer anti-human kappa M1.7.10-Dig; analyte 5 ng/mL
[3] = target: anti-VEGF/ANG2 antibody (IgG1 subclass with mutations P329G/L234A/L235A/I253A/H310A/H435A) (human) [IgG part: P01857]; experiment: sandwich ELISA in serum; M1.3.17-Bi capture on SA plate; tracer anti-human kappa M1.7.10-Dig; analyte 10 ng/mL
[4] = target: anti-VEGF/ANG2 antibody (IgG1 subclass with mutations P329G/L234A/L235A/I253A/H310A/H435A) [IgG part: P01857]; experiment: sandwich ELISA in serum; capture M1.3.17, tracer M1.7.24; anti-VEGF/ANG2 antibody 78.125 ng/mL
[5] = target: anti-VEGF/ANG2 antibody (IgG1 subclass with mutations P329G/L234A/L235A/I253A/H310A/H435A) [IgG part: P01857]; experiment: bridging ELISA; biotinylated and digoxigenylated anti-VEGF/ANG2 antibody bridged by M1.3.17 at 0 ng/mL (blank)
[6] = target: cytokine (IL-2) antibody conjugate with the mutations P329G, L234A, L235A, I253A, H310A, and H435A; experiment: sandwich ELISA in serum; capture anti-IL2 antibody, tracer M1.7.24; conjugate 78.125 ng/mL
[7] = target: cytokine (IL-2) antibody conjugate with the mutations P329G, L234A, L235A, I253A, H310A, and H435A; experiment: sandwich ELISA in serum; capture anti-IL2 antibody, tracer M1.7.24; conjugate 625 ng/mL
[8] = target: anti-VEGF/ANG2 antibody (IgG1 subclass with mutations P329G/L234A/L235A/I253A/H310A/H435A) [IgG part: P01857]; experiment: sandwich ELISA in serum; capture M1.7.10-Bi, tracer M1.7.24-Dig; anti-VEGF/ANG2 antibody 0.01953125 ng/mL
[9] = target: anti-VEGF/ANG2 antibody (IgG1 subclass with mutations P329G/L234A/L235A/I253A/H310A/H435A) [IgG part: P01857]; experiment: sandwich ELISA in serum; capture M1.7.10-Bi, tracer M1.7.24-Dig; anti-VEGF/ANG2 antibody 0.3125 ng/mL
[10] = target: anti-VEGF/ANG2 antibody (IgG1 subclass with mutations P329G/L234A/L235A/I253A/H310A/H435A) [IgG part: P01857]; experiment: sandwich ELISA in serum; capture M1.7.10-Bi, tracer M1.7.24-Dig; anti-VEGF/ANG2 antibody 0.0390625 ng/mL
[11] = target: anti-VEGF/ANG2 antibody (IgG1 subclass with mutations P329G/L234A/L235A/I253A/H310A/H435A) [IgG part: P01857]; experiment: sandwich ELISA in serum; capture M1.7.10-Bi, tracer M1.7.24-Dig; anti-VEGF/ANG2 antibody 10 ng/mL

Binder	signal [OD405 nm] [1] [OD405 nm]	signal [OD405 nm] [2] [OD405 nm]	signal [OD405 nm] [3] [OD405 nm]	signal [OD405 nm] [4] [OD405 nm]	signal [OD405 nm] [5] [OD405 nm]	signal [OD405 nm] [6] [OD405 nm]	signal [OD405 nm] [7] [OD405 nm]	signal [OD405 nm] [8] [OD405 nm]	signal [OD405 nm] [9] [OD405 nm]	signal [OD405 nm] [10] [OD405 nm]	signal [OD405 nm] [11] [OD405 nm]
anti-variant (human) Fc-region antibody M1.3.17 (antibody, V domains shown) VH: EVKLLESGGGLVQPGGSLKLSCAASGIDFRRYWMNWVRQAPGKGLEWIGEIDPDSSTINYTPSLKDKFIISRDNAKNTMYLQMRKVRSEDTALYYCARPYDYGAWFAYWGQGTLVTVSA VL: QAVVTQESALTTSPGETVTLTCRSTTGAVTTSNYANWVQEKPDHLFTGLIGGTNKRAPGVPARFSGSLIGDKAALTITGAQTEDEAIYFCALWYSDHWVFGGGTKLTVL	0.573	1.6	2.23	0.301	0.046						
anti-variant (human) Fc-region antibody M1.7.24 (antibody, V domains shown) VH: EVKLLESGGGLVQPGGSLKLSCAASGFDFSRYWMNWVRQAPGKGLEWIGEITPDSSTINYTPSLKDKFIISRDNAKNTLYLQMIKVRSEDTALYYCVRPYDYGAWFASWGQGTLVTVSA VL: QAVVTQESALTTSPGETVTLTCRSSTGAVTTSNYANWVQEKPDHLFTGLIGGTNKRAPGVPARFSGSLIGDKAALTITGAQTEDEAIYFCALWYSNHWVFGGGTKLTVL						0.152	0.811	0.057	0.261	0.072	2.76
